Target: the molecule itself
Experiment: crystal structure

B1: Kitasatospora setae enoyl-CoA carboxylase/reductase (ECR), wild type (enzyme)
chain: MQEILDAILSGDAASADYAALALPESYRAVTLHKGEERMFDGLASRDKDPRKSLHLDDVPLPELGPGEALVAVMASSVNYNTVWSSIFEPVSTFGFLERYGRLSPLTARHDLPYHVLGSDLAGVVLRTGAGVNAWKPGDEVVAHCLSVELESPDGHNDTMMDPEQRIWGFETNFGGLAQLALVKTNQLLPKPKHLTWEEAASPGLVNSTAYRQLVSRNGAGLKQGDNVLIWGASGGLGSYATQYALAGGATPICVVSSPRKADICRAMGAEAIIDRSAEGYRFWKDEHHQDPREWKRLGGKIREFTGGEDVDIVFEHPGRETFGASVYVTRKGGTIVTCASTSGYMHQYDNRYLWMSLKRIVGSHFANYREAFEANRLVAKGKIHPTLSKVYALEETGQAALDVHHNKHQGKVGVLCLAPREGLGVTDPELRSKHLTKINAFRNV
Question: For B1, which “stoichiometry N” value is on record?
Answer: Its value is 4.

— article doi:10.1101/607101 (bioRxiv, 2019)
